Measured values: article PMC10989989, “The archaeal KEOPS complex possesses a functional Gon7 homolog and has an essential function independent of the cellular t^6A modification level” (mLife, 2023)

T1: His-tagged SisPcc1 co-expressed with no-tagged SisKae1 in E. coli (Saccharolobus islandicus REY15A, UniProt F0NF65 1-91)
T1 construct: Pcc1 of Saccharolobus islandicus REY15A, encoded by SiRe_1278; Pcc1 is insoluble when expressed alone in E. coli; also called His‐Pcc1; source: E. coli BL21(DE3)-Codon plus-RIL, pRSF-Duet1, co-expressed with no-tagged SisKae1; pulled down and co-purified (Ni-NTA, HiTrap Q FF, Superdex 200)
T1 sequence (looked up): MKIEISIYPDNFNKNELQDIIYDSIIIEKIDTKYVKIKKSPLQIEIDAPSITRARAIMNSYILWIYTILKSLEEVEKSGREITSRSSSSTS

T2: Kae1‐Pcc1 subcomplex (2Kae1:2Pcc1), co-expressed in E. coli (Saccharolobus islandicus REY15A, UniProt F0NFC9 1-331; F0NF65 1-91)
T2 construct: Kae1 of Saccharolobus islandicus REY15A, no tag; Pcc1 of Saccharolobus islandicus REY15A, encoded by SiRe_1278; The preformed complex (chains as m11 and m16) to which Pcc1-like was added; after addition the product is 1:1:1; also called 2Kae1:2Pcc1 subcomplex; Kae1‐Pcc1‐Pcc1‐Kae1; source: E. coli BL21(DE3)-Codon plus-RIL, pRSF-Duet1, no-tagged SisKae1 co-expressed with His-tagged SisPcc1; …
T2 sequence (looked up) 1: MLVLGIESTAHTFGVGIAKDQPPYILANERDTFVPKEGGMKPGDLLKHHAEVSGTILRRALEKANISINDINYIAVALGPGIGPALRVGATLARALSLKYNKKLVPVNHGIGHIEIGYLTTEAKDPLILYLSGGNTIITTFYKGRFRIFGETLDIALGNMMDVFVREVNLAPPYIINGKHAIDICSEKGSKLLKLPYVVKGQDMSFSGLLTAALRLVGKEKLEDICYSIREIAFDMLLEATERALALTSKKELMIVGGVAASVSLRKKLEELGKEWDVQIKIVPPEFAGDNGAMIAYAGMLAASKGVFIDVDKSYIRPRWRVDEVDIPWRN
T2 sequence (looked up) 2: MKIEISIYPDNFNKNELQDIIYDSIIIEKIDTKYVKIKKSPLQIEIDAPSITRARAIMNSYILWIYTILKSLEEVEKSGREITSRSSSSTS


Tests used:
[1] = target: T1, His-tagged SisPcc1 co-expressed with …; experiment: SEC; co-expressed Kae1/Pcc1 subcomplex; Superdex 200 Increase 10/300; 200 mM NaCl, 50 mM Tris-HCl pH 8.0, 5% glycerol; masses from protein standards; conditions: both partners purified
[2] = target: Flag-tagged SisKae1 co-expressed with His-tagged SisPcc1-like in E. coli (Saccharolobus islandicus REY15A); experiment: SEC; co-expressed Kae1/Pcc1-like, Pcc1-like about 10-fold in excess of Kae1; Superdex 200 Increase 10/300; 200 mM NaCl, 50 mM Tris-HCl pH 8.0, 5% glycerol
[3] = target: T2, Kae1‐Pcc1 subcomplex (2Kae1:2Pcc1), …; experiment: SEC; 1.5-fold Pcc1-like added to the 2Kae1:2Pcc1 subcomplex, 60°C for 30 min before loading; Superdex 200 Increase 10/300; 200 mM NaCl, 50 mM Tris-HCl pH 8.0, 5% glycerol; conditions: both partners purified
[4] = target: SisKae1 mixed in five-fold excess with SisPcc1-like for SEC (Saccharolobus islandicus REY15A); experiment: SEC; Kae1 in five-fold excess: 6 μM SisPcc1-like mixed with 30 μM SisKae1, 60°C for 30 min before loading; Superdex 200 Increase 10/300; 200 mM NaCl, 50 mM Tris-HCl pH 8.0, 5% glycerol

stoichiometry N [1]	stoichiometry N (Pcc1-like per Kae1) [2]	stoichiometry N [3]	stoichiometry N (Pcc1-like per Kae1) [4]	Binder
1 Kae1 per Pcc1 (printed as 2:2)				No-tagged SisKae1 from E. coli (natural protein, Saccharolobus islandicus REY15A, UniProt F0NFC9 1-331, looked up, Kae1 of Saccharolobus islandicus REY15A, no tag; Two vectors (pET15b alone; pRSF-Duet1 with His-Pcc1) give the same untagged protein; source: E. coli BL21(DE3)-Codon plus-RIL; alone (pET15b), purified; also co-expressed with His-tagged SisPcc1 (pRSF-Duet1), pulled down and co-purified) MLVLGIESTAHTFGVGIAKDQPPYILANERDTFVPKEGGMKPGDLLKHHAEVSGTILRRALEKANISINDINYIAVALGPGIGPALRVGATLARALSLKYNKKLVPVNHGIGHIEIGYLTTEAKDPLILYLSGGNTIITTFYKGRFRIFGETLDIALGNMMDVFVREVNLAPPYIINGKHAIDICSEKGSKLLKLPYVVKGQDMSFSGLLTAALRLVGKEKLEDICYSIREIAFDMLLEATERALALTSKKELMIVGGVAASVSLRKKLEELGKEWDVQIKIVPPEFAGDNGAMIAYAGMLAASKGVFIDVDKSYIRPRWRVDEVDIPWRN
	2	1 Kae1:Pcc1:Pcc1-like 1:1:1	1	His-tagged SisPcc1‐like from E. coli (natural protein, Saccharolobus islandicus REY15A, UniProt F0NIH8 1-81, looked up, Pcc1-like (Gon7-like) of Saccharolobus islandicus REY15A, encoded by SiRe_1701; also called His‐SisPcc1‐like; source: E. coli BL21(DE3)-Codon plus-RIL, pRSF-Duet1 (alone, or co-expressed with Flag-tagged SisKae1 or SisPcc1); purified (Ni-NTA, HiTrap Q FF, Superdex 200)) MIELRILSEHEDAELIIRSLNVDNVNLPEGMSIQTKVEGKELEIVIKMRITKPNDLMTVRNTADEILAHIKALQSSFDAIS
